The results in this text go back to patent US20100330649A1.

Data set [1] deals with His8-cytb5-sd (human cytochrome b5 soluble domain with N-terminal His8 tag) (UniProt P00167).
The target in data set [2] is His8-cytb5R (soluble form of human cytochrome b5 reductase with N-terminal His8 tag) (human) (UniProt P00387). The experiment in a line: cell-based or functional assay.
Data set [3] addresses His8-MBP-fl-cytb5 fusion protein.

UniProt P00167, sequence (P00167 1-97): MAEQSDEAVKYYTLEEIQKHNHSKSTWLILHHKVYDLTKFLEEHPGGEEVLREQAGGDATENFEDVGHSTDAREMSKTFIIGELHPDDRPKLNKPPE
UniProt P00387, sequence (P00387 24-301): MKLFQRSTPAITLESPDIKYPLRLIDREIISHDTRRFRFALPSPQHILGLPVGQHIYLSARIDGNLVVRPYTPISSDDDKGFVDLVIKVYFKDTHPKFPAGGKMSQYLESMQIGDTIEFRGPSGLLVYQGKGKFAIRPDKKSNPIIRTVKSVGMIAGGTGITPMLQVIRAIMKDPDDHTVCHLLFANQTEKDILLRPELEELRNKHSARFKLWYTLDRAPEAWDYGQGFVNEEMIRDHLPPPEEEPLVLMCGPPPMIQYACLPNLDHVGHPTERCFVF

With “His8-cytb5R (soluble form of human cytochrome b5 reductase with N-terminal His8 tag)”, in data set [1], the Km, µM (steady-state reduction of cytb5 by His8-cytb5R with NADH) was 5 µM and the Vmax, s^-1 (steady-state reduction of cytb5 by His8-cytb5R with NADH, absorbance at 413 nm) came out at 25 s⁻¹. “His8-cytb5-sd (human cytochrome b5 soluble domain with N-terminal His8 tag) (from UniProt P00167 1-97)” yielded a V/K, µM^-1 s^-1 (steady-state reduction of cytb5 by His8-cytb5R with NADH) in data set [2] of 5e+06 M⁻¹ s⁻¹.

B1: tobacco etch virus (TEV) protease (protein)
chain: GESLFKGPRDYNPISSTICHLTNESDGHTTSLYGIGFGPFIITNKHLFRRNNGTLLVQSLHGVFKVKNTTTLQQHLIDGRDMIIIRMPKDFPPFPQKLKFREPQREERICLVTTNFQTKSMSSMVSDTSCTFPSSDGIFWKHWIQTKDGQCGSPLVSTRDGFIVGIHSASNFTNTNNYFTSVPKNFMELLTNQEAQQWVSGWRLNADSVLWGGHKVFMSKPEEPFQPVKEATQLMNE
For B1, in data set [3], the “site-specific proteolysis of the linker (SDS-PAGE)” value is reported as “a satisfactory reaction was obtained at a ratio of His8-MBP-fl-cytb5 to TEV protease of 10:1 (reaction completed in 30 min)”.
